Reference: the supplement of paper PMC9732359
± gives the uncertainty stated by the source.

Test: protein stability index of a GFP-peptide fusion (yeast GPS) (PSI 1-4); higher = more stable; sorted into four equal gates, so the index is relative within each strain
Conditions: ubr1∆
Method in brief: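 Tiled 17-residue peptides from yeast proteins were fused downstream of GFP on a plasmid that also expresses Cherry, and the pooled library was carried in yeast. Mid-log cultures grown in leucine-free medium were sorted into four equal gates by GFP/Cherry fluorescence ratio. Plasmids from each gate were PCR-amplified and Illumina-sequenced, and reads were assigned to strains by barcodes. Each peptide's protein stability index is the sum, over gates, of the gate's read frequency multiplied by its gate number.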

Sequence | protein stability index
VFLRNRLKYALNGREVK [RPS4A] | 3.06 ± 0.095
VFNDAHVLNKVTLASIL [RPN1] | 2.03 ± 0.05
VFVGTIFAGAFVFQTVF [QCR9] | 1.5 ± 0.043
VFYQVTPEDADEEEDDE [RPL22B] | 1.99 ± 0.071
VGASVVVVKNWGAETDE [RPS12] | 2.97 ± 0.067
VGDIVDIKANGSIQKGM [RPL21A] | 2.19 ± 0.047
VGKRVRYLVGGNKIQKV [RPS7A] | 1.7 ± 0.17
VGKYDKAIELLEKALQG [SRP72] | 1.18 ± 0.22
VGMRYFHKQQAHFWKPV [RPL28] | 2.83 ± 0.09
VGTAIDSILNYAKSEFD [ECM29] | 3.08 ± 0.088
VHTANFSERGSNTRTMT [MED2] | 3.26 ± 0.22
VICSVTGPIEPKARQEL [RRP46] | 2.88 ± 0.054
VIDIEIHVLEQDGGIMG [SKI6] | 2.85 ± 0.062
VISLGPNLATFISSGTS [YJL039C/NUP192] | 2.3 ± 0.046
VISMFVLPIFTTVFFSR [YML031W/NDC1] | 1.16 ± 0.057
VITPHFITNVQSISQNS [SWI1] | 1.73 ± 0.073
VIVTDPRSDAQAIKEAS [RPS0A] | 2.91 ± 0.061
VKEEKEDMETQASDPSK [RPC53] | 3.31 ± 0.15
VKFYEIFNFDQLVEITE [SRB8] | 1.37 ± 0.058
VKGLLNTYKRLVIGIFK [YJL039C/NUP192] | 2.2 ± 0.04
VKHSPGAIKPFTPKLIY [ECM29] | 2.93 ± 0.1
VKLGLNSKMPTRFPPAV [PRP8] | 2.73 ± 0.06
VKLGNIWKESLIELSGG [SMC2] | 2.19 ± 0.1
VKLQMIKFGGLIIQKIP [ECM29] | 2.37 ± 0.049
VKNLSLMSCISVGTDPM [RPB2] | 2.43 ± 0.063

Sequence | protein stability index
VKQLENVSSNIVKNAEQ [RPS20] | 2.86 ± 0.056
VKSFKPHLLKQGLAMVE [RRP42] | 2.29 ± 0.2
VKSLRQGKSKLIIIAAN [RPL30] | 1.96 ± 0.084
VKTKTIELIDYDKLPAG [RET1] | 2.95 ± 0.082
VLEDVYRCFAQLELRQL [RRI2] | 2.67 ± 0.17
VLEFCKDYEAKTKAMSL [POP1] | 3.06 ± 0.031
VLGNSRGVDAGKGNTFE [RPN14] | 3.3 ± 0.12
VLKADRSWNEPSKSQTN [YML103C/NUP188] | 3.27 ± 0.083
VLKVDKRFMNTSQNPQR [BRR2] | 2.99 ± 0.04
VLKVYSMINNSNQAVGQ [SRB8] | 2.63 ± 0.051
VLQEYRLTKQAFDWVLS [RPO21] | 2.78 ± 0.046
VLRLATNKGPLAQIWLA [MCD1] | 1.17 ± 0.055
VLVGSCAYTGTGDVLLI [RPN1] | 3.1 ± 0.075
VLYQSNATHDEDEFIVQ [SWP82] | 3.151 ± 0.028
VMEIGKDAEYLRNYLTP [PUP1] | 2.85 ± 0.12
VMMDVDSSGVNDLHHSE [RPN3] | 3.19 ± 0.054
VNGSITDQLIQNIETRQ [NUT1] | 3.15 ± 0.042
VNGSPITLVEPEILRFK [RPS16A] | 3.36 ± 0.17
VNIVEKDGAKFIEVRNF [RPL9A] | 1.71 ± 0.24
VNNCIWALKSSLNSMTN [RGR1] | 2.37 ± 0.16
VNWLAYTYLYVRMLASP [BRR2] | 1.24 ± 0.1
VNYLISNTMYSVRLFSF [YJL039C/NUP192] | 1.6 ± 0.056
VPDSKIRIYDLGKKKAT [RPL10] | 1.05 ± 0.056
VPEFFQTANEKHITVRL [SRP14] | 2.56 ± 0.1
VPGMPAPIKKIIERYIK [PRP8] | 3.16 ± 0.13

Sequence | protein stability index
VPGPGTKLIQYEHNGRT [CSL4] | 3.09 ± 0.056
VPIKSSKSGRIFALVFS [RPN13] | 2.63 ± 0.1
VPTLEAKRDYIISRLNA [FAS1] | 3.25 ± 0.071
VPTVPPSQSEEQKGQMA [MED4] | 2.6 ± 0.091
VPVKLEEIKTVDPASAP [RRP6] | 2.79 ± 0.11
VQDCRYSLASVTLKGAK [POP1] | 2.56 ± 0.049
VQIKDVNDRYQIPTPNN [CSI1] | 1.73 ± 0.049
VQISNIPDIGDLPDTEG [PRP8] | 3.23 ± 0.043
VQKSTKTFSYKRPSTFY [RPL20A] | 2.23 ± 0.065
VQLRYGDYDSHDISRYV [PRP8] | 2.09 ± 0.044
VQLSPSNPQHIIQPFLD [RGR1] | 2.82 ± 0.032
VQNSTLAQLTSKLIPEV [RPS1B] | 2.55 ± 0.047
VQPTIGQLPQLPKLNLP [SNF5] | 3.08 ± 0.043
VQQSEKLRNEVERIQKM [YIL149C/MLP2] | 3.24 ± 0.12
VQRQIEQQKGQQTAQTQ [SNF5] | 3.07 ± 0.055
VRCVNCSKSIPKDKAIK [RPS26A] | 2.82 ± 0.044
VRDVAAQDFINAYASFL [RPS19A] | 2.21 ± 0.088
VRFIGDSVAAIGIPVNK [QCR2] | 3.02 ± 0.2
VRKETYSSYIYKVLKQT [HTB2] | 3.12 ± 0.038
VRMRLAQLTHSLRRIRD [MED8] | 1.91 ± 0.049
VRNSFPLDEIPVDVDFN [REC8] | 2.99 ± 0.065
VRQKIKTLKRMIKESST [POP1] | 1.93 ± 0.044
VRVQFQFTGFLLHEMTQ [GRR1] | 1.85 ± 0.053
VSAAEDESLIRELYKYV [PRP28] | 2.94 ± 0.098
VSFDFNGVPGQALDAVR [MED8] | 3.36 ± 0.061

Sequence | protein stability index
VSIKFTNAAFPFHDPEA [ECM29] | 1.83 ± 0.047
VSKKELYAIKKVTLNKE [BRR2] | 1.6 ± 0.085
VSLIKKYKLISRIVEIF [YML103C/NUP188] | 1.46 ± 0.054
VSLVAEATSNTNSEDKL [MED4] | 2.65 ± 0.1
VSLVVNFQISKKMDDYI [PRP28] | 2.03 ± 0.05
VSMITDHNALPQRCTFA [POP1] | 2.73 ± 0.13
VSNLMGRNIGHPIIQDK [RPB3] | 3.22 ± 0.084
VSNPGDNPPPADNGEEY [MED2] | 3.29 ± 0.11
VSSESSDEAIIPVNKRR [SIR3] | 3.22 ± 0.082
VSTKTNEYRLAFYQVTP [RPL22A] | 2.48 ± 0.048
VSTRAIDLLWKGKTPKN [PRP28] | 1.16 ± 0.14
VSVRKHLERNRKDKDAK [RPS13] | 3.28 ± 0.099
VTEDGTVVTVVSTAKFS [RPL22A] | 2.59 ± 0.061
VTFSVMPPKKSWRNITN [SMC4] | 2.82 ± 0.14
VTKILPHLIIQNHNSKS [IRR1] | 1.15 ± 0.073
VTLDFGNIFADLLPNSF [SMC2] | 2.91 ± 0.064
VTLVNGKRRMNPGPSVQ [RPS30A] | 2.87 ± 0.033
VTPIIDGIVVKNAVVRS [ARP7] | 1.74 ± 0.16
VTPTKTEVIIRATRTQD [RPS3] | 1.91 ± 0.033
VTQNVLGLEYIIRLLPI [SRB8] | 1.63 ± 0.21
VTYSDVGGCKDQIEKLR [RPT1] | 3.39 ± 0.12
VVAAAEDDDNEQHEEKA [QCR6] | 3.07 ± 0.16
VVDFTSLPEELKKRYDL [YMR129W/POM152] | 2.62 ± 0.12
